Measurements reported in patent US20180185504A1 (Regeneron, published 2018).
Where a chain is given by its changes, count along the chain named. Numbers in names are those of the source.

B1: H1H6782P (antibody, human IgG1, V domains shown)
VH: EVQLVESGGGLVQPGRSLRLSCAASGFTFDDYAMHWVRQAPGKGLEWVSGIIWNSGHIGYGDSVKGRFTISRDNAKKSLYLQMNSLRAEDTALYYCARDSGRYQSYFDYWGQGTLVTVSS
VL: DIQMTQSPSTLSASVGDRVTITCRASHIISSWLAWYQQKPGKAPKVLIFKASSLESGVPSRFSGSGSGTEFTLTISSLQPDDFATYYCQQYNTYSRTFGQGTKVEIK
notes: human IgG1 Fc (H1H)
B2: H1H6785P (antibody, human IgG1, V domains shown)
VH: EVQLVESGGGLVQPGGSLRLSCAASGFTFSSYEMNWVRQAPGKGLEWISYISSRGGTIYYADSIKGRFTIYRDNARNSLYLQMNSLRAEDTAIYYCARLSGVDIFDIWGQGTMVTVSS
VL: DIQMTQSPSSLSASVGDRVTITCRASQGISNYLAWYQQKPGKVPKLLIYFASTLQSGVPSRFSGGGSGTDFTLTISSLQPEDVATYYCQRYNSAPLTFGGGTKVEIK
notes: human IgG1 Fc (H1H)
B3: H1H6781P (antibody, human IgG1, V domains shown)
VH: EVQLVESGGDLVQPGESLRLSCTASGFTFNSYEMNWVRQAPGKGLEWVSYISSSGGTKYYVDSVKGRFTISRDNAKKSLYLQMNSLRADDTALYYCARLNGVDVFDIWGQGTMVTVSS
VL: B2 VL with G28D, S30F, Y36F, K45E, Y49S, F50A, G65S, D70Y, V83I
notes: human IgG1 Fc (H1H)
B4: H1H6976N (antibody, human IgG1, V domains shown)
VH: EVQLLESGGGFVQPGGSLRLSCAASGFTFSSYAMSWVRQAPGKGLEWVSIISSNGRYTYYADSVKGRFTISRDNSKNTLYLQMNSLRAEDTAVYYCATVTGDWFDPWGQGTLVTVSS
VL: DIQLTQSPSFLSASVGDRVTITCWASQDIDISLAWYQQKPGKAPKLLIYAASTLQSGVPSKFSGSGSGTDFTLTISSLQPEDFSTYYCQQLNSYPITFGQGTRLDIK
notes: also called H2M6976N
B5: H1H6958N2 (antibody, human IgG1, V domains shown)
VH: QVQLVESGGGVVQPGRSLRLSCGASGFTFRNYGMQWVRQGPGKGLEWVTLISFDGNDKYYADSVKGRFTISRDNSKNTLFLQMNSLRTEDTAVYYCARGGDFDYWGQGTLVTVSS
VL: DIQMTQSPSSLSASVGDRVTITCRASQDIRKDLGWYQQKPGKAPKRLIYAASSLHSGVPSRFSGSGSGTEFTLTISSLQPEDFATYYCLQHNSYPMYTFGQGTKLEIK
notes: also called H2M6958N2
B6: H1H6967N (antibody, human IgG1, V domains shown)
VH: EVQLVESGGDLVHPGRSLRLSCAASGFPFDEYAMHWVRQVPGKGLEWVSGISWSNNNIGYADSVKGRFTISRDNAKNSLYLQMNSLRPEDTAFYYCAKSGIFDSWGQGTLVTVSS
VL: EIVMTQSPATLSVSPGERATLSCRASQSVSRDLAWYQQKPGQAPRLLIHGASTRATGIPARFSGSGSGAEFTLIISSLQSEDFAVYYCQQYNNWPLTFGGGTKVEIK
notes: also called H2M6967N

Biological target: T1, hPRLR.mFc (soluble dimeric human PRLR) (human)
T1 construct: dimeric PRLR construct
T1 chain: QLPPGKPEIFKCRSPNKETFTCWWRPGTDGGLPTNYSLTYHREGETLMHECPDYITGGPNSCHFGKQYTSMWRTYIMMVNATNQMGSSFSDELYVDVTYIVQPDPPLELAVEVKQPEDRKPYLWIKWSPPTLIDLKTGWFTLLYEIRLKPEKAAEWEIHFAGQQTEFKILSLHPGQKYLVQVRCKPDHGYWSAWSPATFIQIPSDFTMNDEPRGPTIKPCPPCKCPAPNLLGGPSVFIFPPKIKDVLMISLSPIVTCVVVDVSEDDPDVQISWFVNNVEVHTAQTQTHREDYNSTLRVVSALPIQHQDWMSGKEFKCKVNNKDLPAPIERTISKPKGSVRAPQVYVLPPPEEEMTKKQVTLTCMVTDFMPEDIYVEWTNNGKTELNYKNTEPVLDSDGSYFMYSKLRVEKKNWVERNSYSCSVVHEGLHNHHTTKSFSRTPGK
Test: SPR (Biacore), antibody capture, 37 C
Procedure: (§1) Measurements were conducted on a T200 Biacore instrument. Kinetic association (kₐ) and dissociation (kd) rate constants were determined by processing and fitting the data to a 1:1 binding model using Scrubber 2.0 curve fitting software.

Binder	Kd [nM]	T 1/2 [min]	koff [s⁻¹]	kon [M⁻¹ s⁻¹]
B1	0.217	89	0.00013	598000
B2	0.256	99	0.000117	456000
B3	0.226	117	9.84e-05	436000
B4	0.102	82.6	0.00014	1.37e+06
B5	0.167	83.3	0.000139	829000
B6	0.107	119	9.73e-05	907000

Biological target: T2, hPRLR.mmh (soluble monomeric human PRLR) (human)
T2 construct: soluble monomeric PRLR protein
T2 chain: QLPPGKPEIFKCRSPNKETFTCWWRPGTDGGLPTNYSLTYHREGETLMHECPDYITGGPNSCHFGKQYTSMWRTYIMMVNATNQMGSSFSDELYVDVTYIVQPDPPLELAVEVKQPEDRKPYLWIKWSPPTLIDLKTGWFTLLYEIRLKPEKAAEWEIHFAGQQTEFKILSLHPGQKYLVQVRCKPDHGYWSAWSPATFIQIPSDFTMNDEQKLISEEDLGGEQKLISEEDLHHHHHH
Test: SPR (Biacore), antibody capture, 37 C
Procedure: as §1

Binder	Kd [nM]	T 1/2 [min]	koff [s⁻¹]	kon [M⁻¹ s⁻¹]
B1	1.28	16	0.000716	557000
B2	1.14	24	0.000484	426000
B3	0.91	37	0.000309	339000
B4	4.04	3.7	0.00314	777000
B5	3.16	8.8	0.00131	413000
B6	2.2	12.4	0.000933	424000

biological target: T3, human PRLR on cells (endogenous on T47D, T47D#11, MCF7); introduced in HEK293/hPRLR/STAT5-Luc, 293/hPRLR, … (human, UniProt P16471 25-622); test: FACS on T47D cells
T3 construct: no tag is stated for these lines; also called prolactin receptor
T3 sequence: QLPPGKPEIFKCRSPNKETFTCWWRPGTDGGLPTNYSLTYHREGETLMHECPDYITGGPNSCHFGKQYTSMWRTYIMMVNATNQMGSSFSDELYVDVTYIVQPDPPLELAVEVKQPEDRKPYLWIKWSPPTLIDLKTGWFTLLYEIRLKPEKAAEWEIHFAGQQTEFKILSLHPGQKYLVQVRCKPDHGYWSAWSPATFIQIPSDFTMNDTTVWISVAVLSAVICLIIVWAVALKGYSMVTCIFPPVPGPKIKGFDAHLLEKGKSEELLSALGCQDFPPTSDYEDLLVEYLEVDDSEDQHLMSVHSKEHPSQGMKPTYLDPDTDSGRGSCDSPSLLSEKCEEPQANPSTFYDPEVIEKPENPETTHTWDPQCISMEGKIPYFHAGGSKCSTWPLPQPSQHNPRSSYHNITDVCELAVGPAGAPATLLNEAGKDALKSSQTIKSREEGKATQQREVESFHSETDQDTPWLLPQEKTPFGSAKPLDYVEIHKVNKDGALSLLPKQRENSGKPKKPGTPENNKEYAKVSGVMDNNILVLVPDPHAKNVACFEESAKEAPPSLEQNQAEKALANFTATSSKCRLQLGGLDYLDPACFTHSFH

Binder	FACS Cell Binding (Fold Above Background) [fold]
B1	43
B2	40
B3	40
B4	37
B5	37
B6	41

biological target: T3, human PRLR on cells (endogenous on …); test: imaging of alexa488 intensity on T47D cells
Procedure: Briefly, 20,000 T47D cells were seeded in collagen coated 96 well plates. […] Cells were then incubated with alexa488 conjugated anti-hFc Fab secondary antibodies for 30 minutes on ice followed by two additional PBS washes. Antibodies were allowed to internalize for 1 h at 37° C. in internalization buffer (PBS+2% FBS) or remained at 4° C. Cells were fixed in 4% formaldehyde, nuclei were stained with DRAQ5 (Cell signaling), and images were acquired on the ImageXpress micro XL (Molecular Devices). Whole cell alexa488 intensity at 37° C. (Binding) and the alexa488 intensity in the intracellular vesicles at 37° C. (Internalization) were determined via Columbus image analysis software (PerkinElmer).

Binder	% Total Binding relative to Control I [%]
B1	210
B2	168
B3	166
B4	180
B5	162
B6	159

biological target: T3, human PRLR on cells (endogenous on …); test: cell-based or functional assay

Binder	% Internalization relative to Control I (T47D cells, imaging) [%]
B1	179
B2	169
B3	165
B4	170
B5	169
B6	169

biological target: T4, monkey macaca fascicularis PRLR construct with an HA tag on HEK293/mfPRLR cells (macaca fascicularis, UniProt A0A2K5WXK1 25-619); test: FACS on HEK293/mfPRLR cells
T4 construct: stably transfected into HEK293
T4 sequence: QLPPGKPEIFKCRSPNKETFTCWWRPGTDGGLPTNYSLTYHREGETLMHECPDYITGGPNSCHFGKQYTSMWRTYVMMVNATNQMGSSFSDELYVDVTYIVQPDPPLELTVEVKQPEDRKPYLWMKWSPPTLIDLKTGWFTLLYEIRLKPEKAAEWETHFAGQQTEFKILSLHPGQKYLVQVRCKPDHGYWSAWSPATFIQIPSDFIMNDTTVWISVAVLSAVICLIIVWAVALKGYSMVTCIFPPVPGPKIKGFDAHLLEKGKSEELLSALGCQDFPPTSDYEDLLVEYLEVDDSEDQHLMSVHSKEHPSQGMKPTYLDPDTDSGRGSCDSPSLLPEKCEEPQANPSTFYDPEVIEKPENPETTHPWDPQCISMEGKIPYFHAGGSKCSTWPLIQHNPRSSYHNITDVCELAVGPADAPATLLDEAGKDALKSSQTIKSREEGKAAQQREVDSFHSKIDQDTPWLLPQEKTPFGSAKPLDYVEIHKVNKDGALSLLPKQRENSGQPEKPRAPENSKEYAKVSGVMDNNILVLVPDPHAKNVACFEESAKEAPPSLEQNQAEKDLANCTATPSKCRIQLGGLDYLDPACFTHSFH

Binder	FACS Cell Binding (Fold Above Background) [fold]
B1	32
B2	26
B3	26
B4	29
B5	30
B6	28

biological target: T3, human PRLR on cells (endogenous on …); test: cell-based or functional assay; remark: another data set of the same source

Binder	Percent Blocking at 100 nM Antibody (STAT5-Luc reporter) [%]	IC50 of Blocking 5 nM PRL [M] (STAT5-Luc reporter, HEK293/hPRLR/STAT5-Luc cells)
B1	0	–
B2	100	3.45e-10
B3	100	2.7e-11
B4	23	–
B5	100	1.98e-10
B6	100	7.68e-10
